T1: CD20 protein on the surface of B-cells (Raji cells, a Burkitt's lymphoma cell line) (human, UniProt P11836 1-297)
T1 construct: also called CD20 antigen; B lymphocyte antigen CD20
T1 sequence: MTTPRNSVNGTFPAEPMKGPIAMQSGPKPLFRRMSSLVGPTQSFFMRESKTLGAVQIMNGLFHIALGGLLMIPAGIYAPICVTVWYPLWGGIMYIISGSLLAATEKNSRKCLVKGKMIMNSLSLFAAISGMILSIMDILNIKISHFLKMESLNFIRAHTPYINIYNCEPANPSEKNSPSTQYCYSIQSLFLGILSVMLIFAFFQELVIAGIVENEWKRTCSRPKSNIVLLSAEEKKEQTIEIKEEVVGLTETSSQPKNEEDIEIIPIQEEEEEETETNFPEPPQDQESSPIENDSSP


Target: T1, CD20 protein on the surface of B-cells …
Assay: indirect immunofluorescence on Raji cells, flow cytometry
Protocol: Binding affinity of an antibody to its target antigen can be an indicator of antibody efficacy. An indirect immunofluorescence cell-based binding assay was conducted to determine the dissociation constant (KD) between select CD20-binding proteins of the invention and the targeted antigen (CD20 protein on the surface of B-Cells). […] Because of this, the raw data was fitted to the following equation: […]

Row | binding result | Binder
1 | binds | CD20-binding protein with M1/M2/M3/M4/M7 modifications (V3Q, A9S, I10S, V59S, L153D in the rituximab light chain) (antibody, human IgG1, kappa, V domains shown, Heavy chain unmodified; whole IgG as for the wild type; also called M1/2/3/4/7) VH: QVQLQQPGAELVKPGASVKMSCKASGYTFTSYNMHWVKQTPGRGLEWIGAIYPGNGDTSYNQKFKGKATLTADKSSSTAYMQLSSLTSEDSAVYYCARSTYYGGDWYFNVWGAGTTVTVSA VL: QIQLSQSPSSLSASPGEKVTMTCRASSSVSYIHWFQQKPGSSPKPWIYATSNLASGVPSRFSGSGSGTSYSLTISRVEAEDAATYYCQQWTSNPPTFGGGTKLEIKR
2 | no binding | CD20-binding protein with the M9 modification (Y101S in the rituximab Fab heavy chain, in the CDR) (antibody, human IgG1, kappa, V domains shown, Whole IgG as for the wild type; also called M9 (Y101S); CDR mutation) VH: QVQLQQPGAELVKPGASVKMSCKASGYTFTSYNMHWVKQTPGRGLEWIGAIYPGNGDTSYNQKFKGKATLTADKSSSTAYMQLSSLTSEDSAVYYCARSTSYGGDWYFNVWGAGTTVTVSA VL: QIVLSQSPAILSASPGEKVTMTCRASSSVSYIHWFQQKPGSSPKPWIYATSNLASGVPVRFSGSGSGTSYSLTISRVEAEDAATYYCQQWTSNPPTFGGGTKLEIKR

— patent US20150239977A1 (MIT, published 2015)
